# Experimental data taken from patent publication US20250026813A1 (published 2025).
# Target: SARS-CoV-2 spike protein trimer stabilised by double proline (PP) mutation (FIG. 2B sequence) with C (SARS-CoV-2, UniProt P0DTC2 14-1208; P10104 458-484)
binder,measurement,value
"IMPI-013 (antibody, V domains shown) VH: EVQLVESGGGLVQPGRSLRLSCAASGFTFDDYAMHWVRQTPGKGLEWVSGISWNSGSIGYADSVKGRFTISRDNAKNSLYLQMNSLRAEDTALYYCTKDLGLGIGFYYGLDVWGQGTTVTVSS VL: AIQMTQSPSSLSTSVGDRVTITCRASQGIRNDLGWYQLKPGKAPKLLIYDASTLQSGVPSRFSGSGSGTDFTLTISSLEPEDLATYYCLHHYTYPWTFGHGTKVELK",Kd,0.299 nM
